Consider three molecules from patent US10947270B2, “Targeted prodrug cytosine deaminase fusion carrier and application thereof” (National Yang-Ming University, priority 2015, dated 2021).

One data set addresses integrin αvβ3 receptor (Homo sapiens, UniProt P05106+P06756). In words: ELISA binding assay of yCD series recombinant protein to integrin αvβ3 receptor. The settings on record: for decrease of binding to integrin αvβ3 by RGDfv peptide: RGDfv peptide at same concentration. As for the experimental part:
FIGS. 3A-3B show the binding affinity and specificity of RGD4C-yCD, yCD, RGD4C-yCD/UPRT and yCD/UPRT proteins to integrin αvβ3. The binding affinities of RGD4C-yCD, yCD, RGD4C-yCD/UPRT and yCD/UPRT proteins to integrin αvβ3 were determined by ELISA assay using horseradish peroxidase (HRP)-tagged anti-His6 antibody (FIG. 3A). The dissociation constant Kd is obtained by prism software with curve fitting method. […] (*compared with untreated RGDfv group, P<0.05)
The specific binding ability of RGD4C-yCD, yCD, RGD4C-yCD/UPRT and yCD/UPRT recombinant protein to integrin αvβ3 receptor is analyzed by ELISA binding assay, plotted with prism software and made with curve fitting to find the dissociation constant Kd value.
Background: An ELISA detects its analyte on a solid surface through an enzyme-linked reagent.

In another data set the test system is HUVEC cells. In words: Specific binding assay of yCD series recombinant protein and cell (cell ELISA). The format is cell-based, human. The settings on record: HUVEC versus MCF-7. As for the experimental part: (§1) FIG. 5A, FIG. 5B, and FIG. 5C are respectively represented HUVEC cells, U87MG cells, MCF-7 cells seeded in 96-well plates for 24 hours, and then RGD4C-yCD, yCD, RGD4C-yCD/UPRT and yCD/UPRT with different concentrations are added for cells binding assay. After reacted with anti-His-HRP antibody and TMB substrate, ELISA reader (OD450 nm) is used to detect the amount of recombinant protein bound to the cells, and the binding curve is drawn. The nonlinear curve of the prism software is used to make a diagram and calculate the dissociation constant (Kd).
(§2) The anti-His6-Tag-HRP antibody and TMB show the color reagent to detect the amount of recombinant protein bound to the cell, then the dissociation constant Kd value of the recombinant protein and the integrin αvβ3 receptor is calculated and a binding curve is drawn. […] The cell binding ability of RGD4C-yCD for HUVEC and U87MG are about 7.7 folds and 6.8 folds higher than MCF-7 respectively. The cell binding ability of RGD4C-yCD/UPRT for HUVEC and U87MG are about 6.9 folds and 5.8 folds higher than MCF-7 respectively. […] It is shown that RGD4C-yCD and RGD4C-yCD/UPRT are specially bound with integrin αvβ3 through RGD4C sequence.

Data set [1] in a line: Enzyme kinetic analysis of yCD series proteins after DTPA modification, marking and purification. The format is biochemical. The text has this:
The enzyme activity of yCD is not affected by DTPA modification.
FIGS. 24A-24B show the kinetic curve of yCD series protein modified, labeled and purified by DTPA. The enzyme activity of the two proteins is not affected by the labeling conditions. After adding EDTA with a 10-fold molar excess of protein, and it is competitively purified, In-DTPA-yCD compared with the original enzyme activity.
The curve and enzyme kinetic parameters (see FIG. 18 and Table 13) are fitted by the […] protein enzyme kinetics through the Michaelis-Menten formula in the Graph prism program.
Before the protein is labeled by radioisotope, its enzyme function must be determined, and based on the original enzyme function, it should be examined whether it will be affected during the radioactive marking process. The curve and enzyme kinetic parameters of protein are fitted by the Michaelis-Menten formula in the Graph prism program. […] Whether the yCD and RGD4C-yCD protein detected by the same method will be affected under the conditions of DTPA modification, marking and purification. […] After the completion of the radioactive metal mark, it is necessary to add EDTA of 10-fold protein Moire number and react at room temperature for 1 hour to compete for the radioactive metal isotope indium which is not chelated on DTPA. The EDTA in this step also has the chance to chelate the metal zinc ion of the enzyme catalytic center, the enzyme activity is impaired, so it is necessary to analyze the enzyme activity of In-DTPA-yCD and In-RGD4C-yCD protein after competition with EDTA. After the EDTA competitive reaction is completed, the enzyme kinetics analysis can be carried out by reducing the EDTA molecule weight through membrane centrifugation method and by replacing the solution with pH 7.0. […] The curve and receptor binding ability parameters of the protein and integrin αvβ3 are fitted under the conditions of DTPA modification, marking and purification by the One site-Specific binding formula in the Graph prism program (see FIG. 25 and Table 18). […] Although the two proteins after marking are greatly affected by the enzyme activity, they still have good binding ability to the integrin αvβ3 receptor. In consideration of the indispensability of EDTA for radiochemical purity, it retains a considerable amount of enzyme activity. In addition, the effect of integrin αvβ3 receptor binding ability is minimal, in combination of cell uptake, biodistribution and angiography experiment, focusing on the evaluation of target results, and the subsequent biological experiment is still carried out by the marking and purification conditions.

The test system of another data set is HUVEC and U87MG cells. Nature of the data set: Fluorescence microscopy of binding and distribution of yCD series fusion proteins. The format is cell-based, human. The settings on record: 500 nM protein, 2 hours. Here is the method:
(FIG. 8A) or 37° C. […] (FIG. 8C) or 37° C. (FIG. 8D) for 2 hours, and then the fluorescent staining is performed for the cells, and the confocal fluorescence microscope is used to observe the distribution of protein in cells. (Green signal: β3 integrin; red signal: anti-His6-tag (also represents the signal of the fusion protein); blue signal: Hoechst 33342 cell nuclear stain) (Calibration scale: 20 μm).
HUVEC and U87MG cells are co-cultured with culture medium containing 500 nM RGD4C-yCD and RGD4C-yCD/UPRT protein at 4° C. and 37° C. for 2 hours, then the cells are stained with fluorescence, and the distribution in the cell is observed by conjugated fluorescence microscopy.

Data set [2] can be described thus: Enzyme activity and kinetic analysis of yCD series recombinant proteins (5-FC converted into 5-FU). In kind it is biochemical. Conditions: 50 nM protein. As for the experimental part: FIGS. 2A-2B show the enzyme activities of RGD4C-yCD, yCD, RGD4C-yCD/UPRT and yCD/UPRT proteins to convert 5-FC to 5-FU. 50 nM of RGD4C-yCD, yCD, RGD4C-yCD/UPRT or yCD/UPRT protein reacted with increasing concentrations of 5-FC in phosphate buffered saline solutions. […] The measured data was used to plot the enzyme kinetic curve that takes the substrate concentration [S] as the x-axis and takes the initial reaction rate V0 as the y-axis,
The enzyme activity of 5-FC converted into 5-FU by RGD4C-yCD, yCD, RGD4C-yCD/UPRT and yCD/UPRT is performed. The recombinant protein concentration (50 nM) added with 5-FC at different concentrations. The 5-FC consumption and the generated amount of 5-FU is calculated. The measured data is taken as the x-axis by the substrate concentration [S]; the initial reaction rate V0 is the kinetic curve by making a diagramthe with y-axis (see FIG. 2A and FIG. 2B); the non-linear regression is made by the prism software according to the Michaelis-Menten equation; calculate the enzyme kinetic parameter Km and Vmax. […] It is speculated that the yCD function in each fusion protein is similar, but yUPRT may affect the effects of yCD and 5-FC.

For data set [3], the system named is HUVEC, U87MG and MCF-7 cells. Nature of the data set: Specific binding assay of yCD series recombinant protein and cell, statement for the three cells. The format is cell-based, human. Here is the method:
as §1, §2

Chain of integrin αvβ3 receptor (P06756 31-889 limits assumed): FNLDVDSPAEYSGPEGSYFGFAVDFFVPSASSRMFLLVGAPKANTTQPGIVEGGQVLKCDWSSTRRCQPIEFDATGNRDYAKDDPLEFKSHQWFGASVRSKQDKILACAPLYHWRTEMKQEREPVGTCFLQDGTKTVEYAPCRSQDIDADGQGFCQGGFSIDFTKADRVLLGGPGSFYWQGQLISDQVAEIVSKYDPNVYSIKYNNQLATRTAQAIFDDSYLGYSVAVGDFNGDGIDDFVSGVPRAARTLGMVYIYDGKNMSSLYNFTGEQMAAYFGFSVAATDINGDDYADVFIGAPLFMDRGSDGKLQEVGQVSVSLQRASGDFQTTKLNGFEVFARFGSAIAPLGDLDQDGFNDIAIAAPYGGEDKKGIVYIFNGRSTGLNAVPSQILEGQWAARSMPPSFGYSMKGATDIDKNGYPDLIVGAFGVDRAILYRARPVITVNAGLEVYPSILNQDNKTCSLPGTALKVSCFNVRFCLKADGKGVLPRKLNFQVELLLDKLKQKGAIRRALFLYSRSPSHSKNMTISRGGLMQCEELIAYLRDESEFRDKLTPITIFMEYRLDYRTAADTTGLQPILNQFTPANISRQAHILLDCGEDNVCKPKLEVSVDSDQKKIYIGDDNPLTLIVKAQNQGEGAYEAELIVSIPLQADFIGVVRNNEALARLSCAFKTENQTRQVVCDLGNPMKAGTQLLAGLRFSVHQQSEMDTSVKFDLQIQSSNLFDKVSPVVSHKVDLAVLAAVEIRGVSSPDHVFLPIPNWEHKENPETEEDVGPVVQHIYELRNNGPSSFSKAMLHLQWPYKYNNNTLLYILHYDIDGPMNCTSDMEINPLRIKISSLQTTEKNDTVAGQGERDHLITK
Chain of integrin αvβ3 receptor (P06756 891-1048 partner limits assumed): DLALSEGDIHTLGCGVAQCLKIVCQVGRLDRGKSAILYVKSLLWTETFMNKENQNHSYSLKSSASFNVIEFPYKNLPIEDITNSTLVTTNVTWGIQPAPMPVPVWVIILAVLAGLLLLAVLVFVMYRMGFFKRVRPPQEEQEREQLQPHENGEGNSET
Chain of integrin αvβ3 receptor (P05106 27-788): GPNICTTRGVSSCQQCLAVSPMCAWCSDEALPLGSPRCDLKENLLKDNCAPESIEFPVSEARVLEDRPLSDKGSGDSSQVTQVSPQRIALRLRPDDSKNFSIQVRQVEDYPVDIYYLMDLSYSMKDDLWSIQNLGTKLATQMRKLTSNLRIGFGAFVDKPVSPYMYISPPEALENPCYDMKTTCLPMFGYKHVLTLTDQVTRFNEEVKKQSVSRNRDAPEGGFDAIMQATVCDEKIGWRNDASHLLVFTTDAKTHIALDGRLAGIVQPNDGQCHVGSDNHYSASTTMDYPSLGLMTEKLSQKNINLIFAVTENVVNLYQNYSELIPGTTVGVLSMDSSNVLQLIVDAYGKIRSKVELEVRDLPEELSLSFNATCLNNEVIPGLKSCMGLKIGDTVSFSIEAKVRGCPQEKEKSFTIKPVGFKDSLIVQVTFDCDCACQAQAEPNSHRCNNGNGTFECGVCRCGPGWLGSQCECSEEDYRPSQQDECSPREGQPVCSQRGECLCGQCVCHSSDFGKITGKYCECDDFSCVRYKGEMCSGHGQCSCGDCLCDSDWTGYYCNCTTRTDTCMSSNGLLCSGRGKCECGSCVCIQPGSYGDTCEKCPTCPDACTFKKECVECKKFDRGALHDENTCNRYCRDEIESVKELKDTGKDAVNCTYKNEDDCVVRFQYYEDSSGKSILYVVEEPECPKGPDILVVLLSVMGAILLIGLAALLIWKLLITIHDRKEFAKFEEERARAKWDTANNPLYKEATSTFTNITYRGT

B1: RGD4C-yCD: targeted prodrug enzyme fusion protein of RGD4C and yCD (SEQ ID NO: 3) (protein)
chain: MACDCRGDCFCVTGGMASKWDQKGMDIAYEEAALGYKEGGVPIGGCLINNKDGSVLGRGHNMRFQKGSATLHGEISTLENCGRLEGKVYKDTTLYTTLSPCDMCTGAIIMYGIPRCVVGENVNFKSKGEKYLQTRGHEVVVVDDERCKKIMKQFIDERPQDWFEDIGELEHHHHHH
modifications: RGD4C_yCD
For orientation: Km means the concentration of substrate that gives half-maximal velocity. Broadly, the Vmax is the rate approached at saturating substrate. Consider B1, for which, in the data set with integrin αvβ3 receptor, the “decrease of binding to integrin αvβ3 by RGDfv peptide” value is recorded as 50%. Further, the “cell binding ability higher than MCF-7” value in the data set with HUVEC cells is on record as “about 7.7 folds”. Also, the Michaelis-Menten constant (Km) in data set [1] was 1000 ± 73.2 µM; in data set [2] (calculated by 5-FC consumption) it was 600 ± 100 µM; in data set [2] (calculated by 5-FU formation), 900 ± 100 µM. Further, the Vmax was 288.7 ± 8.883 µM/min in data set [1], 179.5 ± 4.7 µM/min in data set [2] (calculated by 5-FC consumption) and 167.7 ± 4.6 µM/min in data set [2] (calculated by 5-FU formation). For the same molecule, the “binding and distribution in cells” value in the data set on HUVEC and U87MG cells (4° C.) was “only bound to HUVEC and U87MG cell surface”; in the data set on HUVEC and U87MG cells (37° C.), “enter the inside of HUVEC and U87MG cells through endocytosis”.

B2: yCD/UPRT: recombinant fusion of yCD and yUPRT without target molecule (protein)
chain: MVVTGGMASKWDQKGMDIAYEEAALGYKEGGVPIGGCLINNKDGSVLGRGHNMRFQKGSATLHGEISTLENCGRLEGKVYKDTTLYTTLSPCDMCTGAIIMYGIPRCVVGENVNFKSKGEKYLQTRGHEVVVVDDERCKKIMKQFIDERPQDWFEDIGEASEPFKNVYLLPQTNQLLGLYTIIRNKNTTRPDFIFYSDRIIRLLVEEGLNHLPVQKQIVETDTNENFEGVSFMGKICGVSIVRAGESMEQGLRDCCRSVRIGKILIQRDEETALPKLFYEKLPEDISERYVFLLDPMLATGGSAIMATEVLIKRGVKPERIYFLNLICSKEGIEKYHAAFPEVRIVTGALDRGLDENKYLVPGLGDFGDRYYCVLEHHHHHH
B2: the “binding to integrin αvβ3” value in the data set with integrin αvβ3 receptor (ELISA) is reported as “cannot be bound”. Moreover, in the data set on HUVEC and U87MG cells (4° C.), the “binding and distribution in cells” value is listed as “can not be effectively bound”. In data set [2] (calculated by 5-FC consumption), the Michaelis-Menten constant (Km) was 1200 ± 100 µM and the Vmax was 137.2 ± 3.6 µM/min. In addition, in data set [2] (calculated by 5-FU formation), the Km is 1200 ± 100 µM and the Vmax is 112.7 ± 8.1 µM/min. For the same molecule, the “binding to the three cells” value in data set [3] was “weak binding”.

B3: RGD4C-yCD/UPRT: targeted prodrug enzyme fusion protein (SEQ ID NO: 4) (protein)
chain: MACDCRGDCFCVTGGMASKWDQKGMDIAYEEAALGYKEGGVPIGGCLINNKDGSVLGRGHNMRFQKGSATLHGEISTLENCGRLEGKVYKDTTLYTTLSPCDMCTGAIIMYGIPRCVVGENVNFKSKGEKYLQTRGHEVVVVDDERCKKIMKQFIDERPQDWFEDIGEASEPFKNVYLLPQTNQLLGLYTIIRNKNTTRPDFIFYSDRIIRLLVEEGLNHLPVQKQIVETDTNENFEGVSFMGKICGVSIVRAGESMEQGLRDCCRSVRIGKILIQRDEETALPKLFYEKLPEDISERYVFLLDPMLATGGSAIMATEVLIKRGVKPERIYFLNLICSKEGIEKYHAAFPEVRIVTGALDRGLDENKYLVPGLGDFGDRYYCVLEHHHHHH
modifications: RGD4C_yCD_yUPRT
Regarding B3, the “decrease of binding to integrin αvβ3 by RGDfv peptide” value with integrin αvβ3 receptor worked out at 50%. Further, the “cell binding ability higher than MCF-7” value in the data set with HUVEC cells is reported as “about 6.9 folds”. In addition, the “binding and distribution in cells” value was “only bound to HUVEC and U87MG cell surface” in the data set on HUVEC and U87MG cells (4° C.); “enter the inside of HUVEC and U87MG cells through endocytosis” in the data set with HUVEC and U87MG cells (37° C.). For the same molecule, the Km in data set [2] (calculated by 5-FC consumption) and in data set [2] (calculated by 5-FU formation) was 1200 ± 200 µM in each case. The Vmax was 147.0 ± 5.9 µM/min in data set [2] (calculated by 5-FC consumption) and 109.2 ± 10.1 µM/min in data set [2] (calculated by 5-FU formation).
